T1: Cynomolgus monkey PDGF-BB (cynomolgus monkey, UniProt P01127 82-190 (human entry), limits assumed)
T1 chain: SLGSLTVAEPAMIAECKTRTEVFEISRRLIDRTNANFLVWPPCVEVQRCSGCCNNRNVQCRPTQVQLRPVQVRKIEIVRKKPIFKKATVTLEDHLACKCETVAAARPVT


Legend:
[1] = biological target: recombinant human PDGF-BB (human, UniProt P01127 82-190, biotin-labelled in the binding and competition ELISAs (sites not given)); assay: cell-based or functional assay
Human PDGF-BB [2] = biological target: T2, Human PDGF-BB (human, UniProt P01127 82-190); assay: cell-based or functional assay
Target sequence in this assay (P01127 82-190 limits assumed): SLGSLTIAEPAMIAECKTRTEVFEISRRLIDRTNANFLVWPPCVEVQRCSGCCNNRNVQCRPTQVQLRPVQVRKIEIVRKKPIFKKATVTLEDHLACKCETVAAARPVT

[3] = biological target: T1, Cynomolgus monkey PDGF-BB; assay: cell-based or functional assay
Human PDGF-BB [4] = biological target: T2, Human PDGF-BB; assay: Biacore SPR, antibody captured by anti-human Fc, PDGF-BB as analyte
Description: Unreacted moieties on the biosensor surface were blocked with ethanolamine. For kinetic analysis, rate equations derived from the 1:1 Langmuir binding model were fitted simultaneously to multiple antigen injections (using global fit analysis) with the use of Scrubber 2 (BioLogic Software), Biacore Biaevaluation 4.0.1 software or Biacore T100 Evaluation software. Purified antibodies or DVD-Ig molecules were diluted in running buffer for capture across goat anti-human Fc reaction surfaces. Antibodies or DVD-Ig molecules to be captured as a ligand (1 μg/ml) were injected over reaction matrices at a flow rate of 10 μl/minute. During the assay, all measurements were referenced against the capture surface alone (i.e., with no captured antibody or DVD-Ig molecule). […] The equilibrium dissociation constant KD (M) of the reaction between antibodies and the target antigen was then calculated from the kinetic rate constants by the following formula: KD=Koff/Kₒₙ. Binding was recorded as a function of time and kinetic rate constants were calculated. In this assay, on-rates as fast as 10⁶M⁻¹s⁻¹ and off-rates as slow as 10⁻⁶ s⁻¹ could be measured. […]

Human PDGF-BB [5] = biological target: T2, Human PDGF-BB; assay: competition ELISA: antibody pre-incubated with hPDGF-BB-biotin, binding to coated hPDGF-Rβ-Fc
Description: Plates were then washed four times with wash buffer (TBS, 0.05% Tween-20) and blocked with Superblock blocking buffer (Thermo Scientific, cat#37535). During the blocking step, supernatants, antibodies, benchmark compounds or DVD-Ig were diluted in assay diluent (10% Superblock containing 0.05% surfactamps) and an eight point titration of each sample molecule was performed. […] Following incubation, plates were washed four times with wash buffer. Detection reagent Streptavidin-polyHRP-40 (Fitzgerald, cat#65r-s104phrp) was diluted in assay diluent and added to plates (50 μL) for 45 minutes at 25° C. with shaking. Plates were washed four times with wash buffer and developed with the addition of Enhanced K-blue TMB substrate (Neogen, cat#308177). The reaction was stopped with 2N sulfuric acid (VWR, cat# BDH3500-1) and the absorbance was read at 450 nm-570 nm. […] Data was analyzed using Softmax Pro 4.8 software and IC₅₀ values calculated using a sigmoidal dose response (variable slope) fit in GraphPad Prism 5.
Potency was evaluated in both cell-based and ELISA formats.
Target sequence in this assay (P01127 82-190 limits assumed): as above

Chain of recombinant human PDGF-BB (P01127 82-190 limits assumed): as above

| Binder | huPDGF-BB Neutralization Potency (nM) in NIH-3T3 Cells [1] | hPDGF-BB NIH-3T3 Proliferation IC50 (Human PDGF-BB [2]) | cynoPDGF-BB NIH-3T3 Proliferation IC50 [3] | Kd (Human PDGF-BB [4]) | kon (Human PDGF-BB [4]) | IC50 (Human PDGF-BB [5]) |
| --- | --- | --- | --- | --- | --- | --- |
| CL-33706-IgG (antibody, V domains shown) VH: EVTLRESGPALVKPTQTLTLTCTFSGFSLSTYGMGVGWIRQPPGKALEWLANIWWDDDKYYNPSLKNRLTISKDTSKNQVVLTMTNMDPVDTATYYCARIETMGPKYSFDYWGQGTMVTVSS VL: EIVLTQSPGTLSLSPGERATLSCRASSGSIWYSFVSWYQQKPGQAPRLLIYADDQRASGIPDRFSGSGSGTDFTLTISRLEPEDFAVYYCQSYGINIDVVFGGGTKVEIK | – | 35 pM | 19 pM | 0.69 pM | 1.8e+07 M⁻¹ s⁻¹ | 81 pM |
| CL-33803-IgG (antibody, V domains shown) VH: EVTLRESGPALVKPTQTLTLTCTFSGFSLSTYGMGVGWIRQPPGKALEWLANIWWDDDKYYNPSLKNRLTISKDTSKNQVVLTMTNMDPVDTATYYCARIESLPTSYSFDYWGQGTMVTVSS VL: EIVLTQSPGTLSLSPGERATLSCERSSGDIWDTYVSWYQQKPGQAPRLLIYADDQRPSGIPDRFSGSGSGTDFTLTISRLEPEDFAVYYCQSYDIIIDIVFGGGTKVEIK | – | 24 pM | 18 pM | ≤ 0.16 pM | ≥ 9e+07 M⁻¹ s⁻¹ | 44 pM |
| CL-33805-IgG (antibody, V domains shown) VH: EVTLRESGPALVKPTQTLTLTCTFSGFSLSTYGMGVGWIRQPPGKALEWLANIWWDDDKYYNPSLKNRLTISKDTSKNQVVLTMTNMDPVDTATYYCARIESHWWSYAFDYWGQGTMVTVSS VL: EIVLTQSPGTLSLSPGERATLSCERSSGSNYDTYVSWYQQKPGQAPRLLIYADDLRASGIPDRFSGSGSGTDFTLTISRLEPEDFAVYYCQSYGIETDIVFGGGTKVEIK | – | 39 pM | 18 pM | 0.21 pM | 6.8e+07 M⁻¹ s⁻¹ | 63 pM |
| CL-33701-IgG (antibody, V domains shown) VH: EVTLRESGPALVKPTQTLTLTCTFSGFSLSTYGMGVGWIRQPPGKALEWLANIWWDDDKYYNPSLKNRLTISKDTSKNQVVLTMTNMDPVDTATYYCARIESLGTSYSFDYWGQGTMVTVSS VL: EIVLTQSPGTLSLSPGERATLSCERSSGDIWDYYVSWYQQKPGQAPRLVIYADDQRPSGIPDRFSGSGSGTDFTLTISRLEPEDFAVYYCQSYDLFIDVTFGGGTKVEIK | – | 56 pM | 12 pM | 0.24 pM | 7.3e+07 M⁻¹ s⁻¹ | 59 pM |
| CL-33820-IgG (antibody, V domains shown) VH: EVTLRESGPALVKPTQTLTLTCTFSGFSLSTYGMGVGWIRQPPGKALEWLANIWWDDDKYYNPSLKNRLTISKDTSKNQVVLTMTNMDPVDTATYYCARIESSFTSYSFDYWGQGTMVTVSS VL: EIVLTQSPGTLSLSPGERATLSCKRSSGSIYDTYVSWYQQKPGQAPRLVIYSDDQRPSGIPDRFSGSGSGTDFTLTISRLEPEDFAVYYCQSYDLTIDITFGGGTKVEIK | – | 17 pM | 13 pM | ≤ 0.16 pM | ≥ 9.8e+07 M⁻¹ s⁻¹ | 66 pM |
| CL-33731-IgG (antibody, V domains shown) VH: EVTLRESGPALVKPTQTLTLTCTFSGFSLSTYGMGVGWIRQPPGKALEWLANIWWDDDKYYNPSLKNRLTISKDTSKNQVVLTMTNMDPVDTATYYCARIESIPTSYSFDYWGQGTMVTVSS VL: EIVLTQSPGTLSLSPGERATLSCERSSGSIWQSYVSWYQQKPGQAPRLVIYADDQRATGIPDRFSGSGSGTDFTLTISRLEPEDFAVYYCQSYDIDIDVVFGGGTKVEIK | – | 36 pM | 23 pM | 0.2 pM | 8.1e+07 M⁻¹ s⁻¹ | 68 pM |
| CL-33812-IgG (antibody, V domains shown) VH: EVTLRESGPALVKPTQTLTLTCTFSGFSLSTYGMGVGWIRQPPGKALEWLANIWWDDDKYYNPSLKNRLTISKDTSKNQVVLTMTNMDPVDTATYYCARIESNPWKYSFDYWGQGTMVTVSS VL: EIVLTQSPGTLSLSPGERATLSCERSSGDIWQSYVSWYQQKPGQAPRLVIYSDDQRASGIPDRFSGSGSGTDFTLTISRLEPEDFAVYYCQSYGINIDVVFGGGTKVEIK | – | 33 pM | 28 pM | 0.3 pM | 6.3e+07 M⁻¹ s⁻¹ | 43 pM |
| CL-33811-IgG (antibody, V domains shown) VH: EVTLRESGPALVKPTQTLTLTCTFSGFSLSTYGMGVGWIRQPPGKALEWLANIWWDDDKYYNPSLKNRLTISKDTSKNQVVLTMTNMDPVDTATYYCARIESSWTTYSFDYWGQGTMVTVSS VL: EIVLTQSPGTLSLSPGERATLSCERSSGSIWHSYVSWYQQKPGQAPRLLIYSDDQRATGIPDRFSGSGSGTDFTLTISRLEPEDFAVYYCQSYGIYIDVVFGGGTKVEIK | – | 32 pM | 12 pM | 0.45 pM | 2.7e+07 M⁻¹ s⁻¹ | 100 pM |
| CL-33855-IgG (antibody, V domains shown) VH: EVTLRESGPALVKPTQTLTLTCTFSGFSLSTYGMGVGWIRQPPGKALEWLANIWWDDDKYYNPSLKNRLTISKDTSKNQVVLTMTNMDPVDTATYYCARIETFGPKYSFDYWGQGTMVTVSS VL: EIVLTQSPGTLSLSPGERATLSCRASSGSIWYSFVSWYQQKPGQAPRLLIYADDQRASGIPDRFSGSGSGTDFTLTISRLEPEDFAVYYCQSYGINIDVVFGGGTKVEIK | – | 37 pM | 19 pM | ≤ 0.05 pM | 2e+07 M⁻¹ s⁻¹ | 162 pM |
| chBDI-1E1 half body (antibody, V domains shown) VH: EVKLQQSGDELVRPGASVKMSCKASGYTFTDYVMHWVKQSPGQGLEWIGTIIPLIDTTSYNQKFKGKATLTADKSSNTAYMELSRLTSEDSAVYYCARTSPYYYSSYDVMDAWGQGASVTVSS VL: NIQLTQSPSLLSASVGDRVTLSCKGSQNINNYLAWYQQKLGEAPKLLIYKTNNLQTGIPSRFSGCGSGTDYTLTISSLHSEDLATYYCYQYDNGYTFGAGTKLELK | > 10 nM | – | – | – | – | – |

Now from value to binder:

| huPDGF-BB Neutralization Potency (nM) in NIH-3T3 Cells [1] | hPDGF-BB NIH-3T3 Proliferation IC50 (Human PDGF-BB [2]) | cynoPDGF-BB NIH-3T3 Proliferation IC50 [3] | Kd (Human PDGF-BB [4]) | kon (Human PDGF-BB [4]) | IC50 (Human PDGF-BB [5]) | Binder |
| --- | --- | --- | --- | --- | --- | --- |
| 1.84 nM | – | – | – | – | – | chBDI-9E8 half-body (antibody, V domains shown) VH: QVTLKESGPGILQPSQTLSLTCTFSGFSLSTYGMGVGWIRQPSGKGLEWLANIWWDDDKYYNPSLKNRLTISKDTSNNQAFLKITNVDTADTATYYCARIESIGTTYSFDYWGQGVMVTVSS VL: QFTLTQPKSVSGSLRSTITIPCERSSGDIGDSYVSWYQQHLGRPPINVIYADDQRPSEVSDRFSGSIDSSSNSASLTITNLQMDDEADYFCQSYDINIDIVFGGGTKLTVL |
| > 10 nM | – | – | – | – | – | chBDI-5H1 half-body (antibody, V domains shown) VH: QVTLKESGPGILQPSQTLSLTCTFSGFSLSTFGMGVGWIRQPSGKGLEWLANIWWDDDKYYNPSLKNRLTISKDTSNSQAFLEITNVDTADTATYYCARISTGISSYYVMDAWGQGASVTVSS VL: QFTLTQPKSVSGSLRSTITIPCERSSGDIGDTYVSWYQQHLGRPPINVIYGNDQRPSEVSDRFSGSIDSSSNSASLTITNLQMDDEADYFCQSYDSDIDIVFGGGTKLTVL |
| 2.49 nM | – | – | – | – | – | chBFU-3E2 half-body (antibody, V domains shown) VH: EVQLQQSGPELQRPGASVKLSCKASGYTFTESYMYWVKQRPEQSLELIGRIDPEDGSTDYVEKFKNKATLTADTSSNTAYMQLSSLTSEDSATYFCARFGARSYFYPMDAWGQGTSVTVSS VL: DTVLTQPPALAVSPGERVSISCRASESVSTLMHWYQQKPGQQPRLLIYGASNLESGVPARFSGSGSGTDFTLTIDPVEADDTATYFCQQSWNDPWTFGGGTKLELK |
| > 10 nM | – | – | – | – | – | chBFU-11A8 half-body (antibody, V domains shown) VH: EVQLQQSGPELQRPGASVKLSCKASGYTFTESYIYWVKQRPEQSLELIGRIDPEDGSTDYVEKFKNKATLTADTSSNTAYMQLSSLTSEDTATYFCARFGARSYFYPMDAWGQGTSVTVSS VL: DTVLTQSPTLAVSPGERVSIPCRASESVSTLMHWYQQKPGQQPRLLIYGASNLESGVPARFSGSGSGTDFTLTIDPVEADDTATYFCQQSWNDPWTFGGGTKLELK |
